From patent US20240067725A1 come the findings set out here.

The target in this assay is full-length human LAG-3 expressed on cells (human) (UniProt P18627). As to the kind of experiment: cell-based or functional assay.
Sequence of full-length human LAG-3 expressed on cells (human) (P18627 23-525 limits assumed): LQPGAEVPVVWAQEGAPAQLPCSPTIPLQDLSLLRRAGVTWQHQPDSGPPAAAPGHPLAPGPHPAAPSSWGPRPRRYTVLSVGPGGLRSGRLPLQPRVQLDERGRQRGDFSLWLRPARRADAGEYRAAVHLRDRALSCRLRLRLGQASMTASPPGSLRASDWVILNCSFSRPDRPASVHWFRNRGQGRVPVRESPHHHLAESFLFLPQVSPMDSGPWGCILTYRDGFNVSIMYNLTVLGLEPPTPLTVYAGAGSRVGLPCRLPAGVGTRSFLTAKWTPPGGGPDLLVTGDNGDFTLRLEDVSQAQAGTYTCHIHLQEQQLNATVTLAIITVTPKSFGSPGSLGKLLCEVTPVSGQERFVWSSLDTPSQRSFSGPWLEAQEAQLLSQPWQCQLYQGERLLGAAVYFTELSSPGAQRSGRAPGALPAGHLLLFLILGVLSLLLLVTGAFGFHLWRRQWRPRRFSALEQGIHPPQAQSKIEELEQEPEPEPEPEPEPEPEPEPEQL

B1: BMK7 (antibody, from another filing, V domains shown)
VH: QVQLVESGGGVVQPGRSLRLSCVASGFTFSSYGMHWVRQAPGKGLEWVAIIWYDGSNKYYADSVKGRFTISRDNSKNTQYLQMNSLRAEDTAVYYCASVATSGDFDYYGMDVWGQGTTVTVSS
VL: EIVLTQSPATLSLSPGERTTLSCRASQRISTYLAWYQQKPGQAPRLLIYDASKRATGIPARFSGSGSGTGFTLTISSLEPEDFAVYYCQQRSNWPLTFGGGTKVEIK
Consider B1, for which the EC50 (nM), IL-2 luciferase reporter gene assay turned out to be 2.65 nM.
